Assay results published in the supplement of paper PMC9112550, “Optimization of the antimicrobial peptide Bac7 by deep mutational scanning” (BMC Biology, 2022).

The sequences below were run on Escherichia coli TOP10 (assay: shrunken log2 fold change of peptide-encoding DNA abundance (4.5 h post-induction vs induction); higher = less antimicrobial activity (less host growth inhibition)). Conditions: time post-induction: 4.5 h; library: site-saturation at positions 5, 18, 19, 20.
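Further: peptides expressed intracellularly from a pBAD plasmid library in pooled LB shake-flask culture, induced with 0.3% L-arabinose, DNA abundance read by NGS, three biological replicates, DESeq2 with apeglm shrinkage.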

Sequence	shrunken log2 fold change
RRIRFRPPRLPRPRPRPHKFPRP	-0.5
RRIRNRPPRLPRPRPRPILNPRP	-0.353
RRIRKRPPRLPRPRPRPSNWPRP	-0.00865
RRIRGRPPRLPRPRPRPMFRPRP	0.303
RRIRDRPPRLPRPRPRPSPEPRP	0.778
RRIRRRPPRLPRPRPRPDIGPRP	-0.0303
RRIRLRPPRLPRPRPRPYWRPRP	0.231
RRIRIRPPRLPRPRPRPTGAPRP	-0.0341
RRIRQRPPRLPRPRPRPSVDPRP	-0.00902
RRIRERPPRLPRPRPRPWCHPRP	-0.229
RRIRNRPPRLPRPRPRPVILPRP	-0.61
RRIRCRPPRLPRPRPRPRKKPRP	-0.125
RRIRYRPPRLPRPRPRPSFPPRP	-0.831
RRIRQRPPRLPRPRPRPDRGPRP	0.0176
RRIRERPPRLPRPRPRPLPMPRP	0.187
RRIRRRPPRLPRPRPRPFAVPRP	0.0874
RRIRCRPPRLPRPRPRPYWAPRP	-1.21
RRIRCRPPRLPRPRPRPGEHPRP	-0.0986
RRIRERPPRLPRPRPRPKRHPRP	0.0422
RRIRMRPPRLPRPRPRPEISPRP	0.0502
RRIRTRPPRLPRPRPRPNFCPRP	-0.126
RRIRRRPPRLPRPRPRPNGHPRP	0.193
RRIRQRPPRLPRPRPRPTGEPRP	0.0647
RRIRLRPPRLPRPRPRPVINPRP	-0.686
RRIRFRPPRLPRPRPRPDHKPRP	-0.406

Sequence	shrunken log2 fold change
RRIRHRPPRLPRPRPRPACSPRP	-0.104
RRIRPRPPRLPRPRPRPNEPPRP	0.146
RRIRWRPPRLPRPRPRPNPGPRP	0.108
RRIRCRPPRLPRPRPRPGTEPRP	0.078
RRIRTRPPRLPRPRPRPRKNPRP	0.136
RRIRYRPPRLPRPRPRPCCLPRP	-0.203
RRIRKRPPRLPRPRPRPIDQPRP	0.122
RRIRQRPPRLPRPRPRPHYNPRP	-1.22
RRIRKRPPRLPRPRPRPLYPPRP	-0.177
RRIRMRPPRLPRPRPRPGGKPRP	0.583
RRIRDRPPRLPRPRPRPAVHPRP	0.16
RRIRMRPPRLPRPRPRPFEAPRP	0.655
RRIRFRPPRLPRPRPRPTQRPRP	0.98
RRIRQRPPRLPRPRPRPPMWPRP	0.336
RRIRGRPPRLPRPRPRPIMYPRP	0.0639
RRIRVRPPRLPRPRPRPDEPPRP	0.225
RRIRMRPPRLPRPRPRPHMWPRP	0.108
RRIRNRPPRLPRPRPRPWGLPRP	-0.123
RRIRHRPPRLPRPRPRPNYRPRP	-0.103
RRIRKRPPRLPRPRPRPIAEPRP	0.0504
RRIRGRPPRLPRPRPRPAWSPRP	0.929
RRIRHRPPRLPRPRPRPTEMPRP	0.181
RRIRPRPPRLPRPRPRPLGMPRP	-0.0753
RRIRLRPPRLPRPRPRPNVVPRP	-0.19
RRIRRRPPRLPRPRPRPDAAPRP	1.44

Sequence	shrunken log2 fold change
RRIRWRPPRLPRPRPRPMVCPRP	0.199
RRIRWRPPRLPRPRPRPAGGPRP	0.379
RRIRIRPPRLPRPRPRPASVPRP	-0.102
RRIRCRPPRLPRPRPRPVTHPRP	-0.29
RRIRKRPPRLPRPRPRPFDAPRP	0.337
RRIRVRPPRLPRPRPRPQCSPRP	-0.18
RRIRPRPPRLPRPRPRPQSNPRP	-0.285
RRIRIRPPRLPRPRPRPLTRPRP	-0.265
RRIRARPPRLPRPRPRPECHPRP	1.38
RRIRTRPPRLPRPRPRPNFFPRP	0.0096
RRIRHRPPRLPRPRPRPACDPRP	0.285
RRIRERPPRLPRPRPRPIPVPRP	-0.217
RRIRERPPRLPRPRPRPWSSPRP	9.28e-05
RRIRMRPPRLPRPRPRPWKPPRP	-0.0836
RRIRWRPPRLPRPRPRPMYKPRP	-0.0607
RRIRARPPRLPRPRPRPRVEPRP	0.187
RRIRVRPPRLPRPRPRPPFDPRP	0.199
RRIRFRPPRLPRPRPRPTQDPRP	0.33
RRIRGRPPRLPRPRPRPHNTPRP	-0.277
RRIRHRPPRLPRPRPRPPWCPRP	0.0341
RRIRDRPPRLPRPRPRPCKIPRP	-0.0385
RRIRIRPPRLPRPRPRPIQSPRP	-0.0915
RRIRSRPPRLPRPRPRPFGWPRP	0.0625
RRIRMRPPRLPRPRPRPGQIPRP	-0.00968
RRIRSRPPRLPRPRPRPEHPPRP	0.166
